Data: publication PMC5453957, “Bartnicki Filip 1”

Assays:
R6-GST [1] = molecular target: T1, R6-GST (synthetic construct, UniProt P08515 =RRRRRR+1-218, internal_change); assay: ITC; 25 C; n 2.61; Table 1 dG -35.8 kJ/mol would fit about 532 nM (R6/R8 possibly swapped); ITC: 50 mM phosphate pH 7.6, 207 mM NaCl, 25 C; pull-down: AS1 buffer (composition not given), 4 C, or ARGI buffer (50 mM Tris-HCl, 300 mM NaCl, 5 mM EDTA, 0.01% Tween 20, pH 7.5); details: protein: recombinant; tags: N-terminal R6 (CPP tag under study); chain copies: 2; label: 5'-biotin (pull-down); four mfold structures predicted
R6-GST [2] = molecular target: T1, R6-GST; assay: pull-down; AS1 buffer; ITC: 50 mM phosphate pH 7.6, 207 mM NaCl, 25 C; pull-down: AS1 buffer (composition not given), 4 C, or ARGI buffer (50 mM Tris-HCl, 300 mM NaCl, 5 mM EDTA, 0.01% Tween 20, pH 7.5); details: protein: recombinant; tags: N-terminal R6 (CPP tag under study); chain copies: 2; label: 5'-biotin (pull-down)
R6-PCNA = R6-PCNA (human, UniProt P12004 =RRRRRR+1-261, internal_change); assay: as above; details: protein: recombinant; tags: N-terminal R6; chain copies: 3; label: 5'-biotin (pull-down)
Tat49-57-PCNA = Tat49-57-PCNA (human, UniProt P12004 =MRKKRRQRRRGGGGGGHPW+1-261, internal_change); assay: as above; details: protein: recombinant; tags: N-terminal Tat49-57; chain copies: 3; label: 5'-biotin (pull-down)
Tat49-57-PCNA, sequence (P12004 other isoform, or with tags, fused parts or gaps): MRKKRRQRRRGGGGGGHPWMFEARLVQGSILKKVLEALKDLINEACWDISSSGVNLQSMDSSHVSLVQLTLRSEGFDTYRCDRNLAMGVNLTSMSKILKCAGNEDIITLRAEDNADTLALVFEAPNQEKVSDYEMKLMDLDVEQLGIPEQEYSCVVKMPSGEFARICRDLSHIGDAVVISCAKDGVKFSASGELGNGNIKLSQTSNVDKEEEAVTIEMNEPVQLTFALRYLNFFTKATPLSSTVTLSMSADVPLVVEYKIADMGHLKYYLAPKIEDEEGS

R6-PCNA, sequence (P12004 other isoform, or with tags, fused parts or gaps): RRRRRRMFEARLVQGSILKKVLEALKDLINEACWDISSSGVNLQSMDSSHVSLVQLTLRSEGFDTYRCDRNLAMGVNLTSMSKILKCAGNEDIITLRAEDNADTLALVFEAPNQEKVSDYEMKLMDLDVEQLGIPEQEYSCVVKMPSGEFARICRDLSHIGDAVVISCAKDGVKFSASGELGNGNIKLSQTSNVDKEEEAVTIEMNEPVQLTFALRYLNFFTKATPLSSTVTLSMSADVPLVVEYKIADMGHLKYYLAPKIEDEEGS

**Q.** Which Kd (R6-GST [1]) does the source give for CTTTGTAATTGGTTCTGAGTTCCGTTGTGGGAGGAACATG (ssDNA) [AR aptamer (24-10 nt 31-70; 5'/-30 and 3'/-10)] here?
**A.** The Kd was 943 ± 37 nM.

B1: 24-10 aptamer full length (ssDNA)
DNA: CATGCTTCCCCAGGGAGATGGACGGCACGTCTTTGTAATTGGTTCTGAGTTCCGTTGTGGGAGGAACATGCGTCGCAAAC
**Q.** Does B1 bind (R6-GST [2])?
**A.** Result: binds

**Q.** Does B1 bind (R6-PCNA)?
**A.** Result: binds

**Q.** Does B1 bind (Tat49-57-PCNA)?
**A.** Result: binds

B2: reference aptamer (ssDNA)
DNA: CATGCTTCCCCAGGGAGATGACTGACTGACTGACTGACTGACTGACTGACTGACTGACTGGAGGAACATGCGTCGCAAAC
**Q.** Which results are given for B2?
**A.** binding result (R6-GST [2]): no binding; binding result (R6-PCNA): no binding; binding result (Tat49-57-PCNA): no binding
